Experimental data: patent US20050152899A1, “EphA2 agonistic monoclonal antibodies and methods of use thereof” (priority 2002, published 2005)

Tests used:
MCF-7^EphA2 cells [1] = assay: Colony formation in soft agar, MCF-7^EphA2 cells; type: cell-based
Method: (§1) Tumor cells were suspended in soft agar. Colony formation in soft agar was assayed as described in Zelinski et al. (2001, Cancer Res. 61: 2301-6). Antibodies or a control solution (PBS) was included in bottom and top agar solutions. […] Colony formation was scored microscopically using an Olympus CK-3 inverted phase-contrast microscope outfitted with a 40× objective. Clusters containing at least three cells were scored as a positive. The average number of colonies per high-powered field is shown. Ten separate high-power microscopic fields were averaged in each experiment, and the results shown are representative of at least three separate experiments.
(§2) A549 malignant lung cancer cells were incubated with either 10 μg/ml or 2.5 μg/ml of EA5 or EA2 monoclonal antibodies or a control (PBS). […] Benign MCF-7 breast epithelial tumor cells were converted to malignant cells by the overexpression of EphA2 (MCF-7^EphA2). Both tumor cell types were incubated with either EA5 monoclonal antibodies or a control (PBS). […] Results are reported as colonies per high-powered field (HPF).
(§3) Growth assays were conducted as follows. MCF-7^neo (control cells) or MCF7^EphA2 cells were seeded in 96-well plates. […] Colony formation in soft agar was performed as previously described (Zelinski et al., 2001, Cancer Res. 61: 2301-6) and scored microscopically, defining clusters of at least three cells as a positive. The data represent the average of ten separate high-power microscopic fields from each sample and representative of at least three separate experiments. Error bars represent the standard error of the mean of at least three different experiments as determined using Microsoft Excel software.
Sensitivity of MCF-7^EphA2 cells to tamoxifen was measured.
Growth MCF-7^EphA2 cells which had decreased EphA2 expression levels was assayed in soft agar.

MCF-7^EphA2 cells [2] = assay: Tumorigenic potential of MCF-7^EphA2 vs MCF-7^neo cells in mammary fat pad under tamoxifen; type: in vivo, athymic (nu/nu) mice; conditions: MCF-7^EphA2 vs control MCF-7^neo; tamoxifen 1 mg oral gavage 6 days per week, supplemental estrogen
Method: Six to eight week-old athymic (nu/nu) mice were purchased from Harlan Sprague Dawley (Indianapolis, Ind.). When indicated, a controlled release estradiol pellet (0.72 mg 17β-estradiol, 60-day formulation) was injected subcutaneously via a sterile 14-gauge trocar 24 hours prior to tumor implantation and pellets were replaced every 60 days for those experiments spanning >60 days in duration. 1×10^6 MCF-7^neo or MCF7^EphA2 cells were injected into the mammary fat pad under direct visualization. When indicated, tamoxifen (1 mg) was administered by oral gavage 6 days per week.

control MCF-7 cells = assay: Colony formation in soft agar, control MCF-7 cells; type: cell-based
Method: as §1, §3
Sensitivity of MCF-7^EphA2 cells to tamoxifen was measured. […]

estrogen receptor = assay: Estrogen receptor activity, ERE-TK-CAT reporter; type: cell-based; conditions: control and MCF-7^EphA2 cells, tamoxifen 10^−6 M
Method: Estrogen receptor activity was measured using ERE-TK-CAT vector (which encodes a single ERE; a generous gift from Dr. Nakshatri, Indiana University School of Medicine) in the unstimulated state, after estradiol (10^−8 M) stimulation and tamoxifen (10^−6 M) inhibition. Cells were plated in phenol red free, charcoal stripped sera for 2 days and transfected with ERE-TK-CAT (5 μg) using calcium phosphate method. The β-galactosidase expression vector RSV/β-galactosidase (2 μg, Dr. Nakshatri's gift) was cotransfected as a control. Fresh media including the appropriate selection drugs were added 24 hours after transfection. Cells were harvested after 24 hours and CAT activity was evaluated as described (Nakshatri et al., 1997, Mol. Cell. Biol. 17: 3629-39).

EphA2 [3] = target: T1, EphA2 (Homo sapiens, UniProt P29317); assay: EphA2 tyrosine phosphorylation and degradation in A549 cells (immunoprecipitation / western blot); type: cell-based; parameters: endogenous in cells; conditions: A549 monolayers
Method: Western blot analyses and immunoprecipitations were performed as described previously (Zantek et al., 1999, Cell Growth Diff. 10: 629-38). Briefly, detergent extracts of cell monolayers were extracted in Tris-buffered saline containing 1% Triton X-100 (Sigma, St. Louis, Mo.). After measuring protein concentrations (BioRad, Hercules, Calif.), 1.5 mg of cell lysate was immunoprecipitated, resolved by SDS-PAGE and transferred to nitrocellulose (Protran, Schleicher and Schuell, Keene, N.H.). Antibody binding was detected by enhanced chemiluminescence (Pierce, Rockford, Ill.) and autoradiography (Kodak X-OMAT; Rochester, N.Y.).
Similar experiments were conducted with A549 cells. Monolayers of A549 cells were incubated at 37° C. in the presence of EA5 or EA2 or control (PBS) for either 10 minutes (FIGS. 2A-2B) or 5 hours (FIGS. 2C-2D). Cell lysates were then immunoprecipitated with an EphA2-specific antibody (D7), resolved by SDS-PAGE and subjected to western blot analysis with a phosphotyrosine-specific antibody (4G10, purchased from Upstate Biologicals, Inc., Lake Placid, N.Y.) (FIGS. 2A, 2C). The membranes were stripped and re-probed with the EphA2-specific antibody used in the immunoprecipitation (D7) as a loading control (FIGS. 2B, 2D). […] (FIG. 2D).

[4] = test system: A549 malignant lung cancer cells; assay: Colony formation in soft agar, A549 cells; type: cell-based; conditions: 10 μg/ml or 2.5 μg/ml, 7 days at 37° C., vs PBS
Method: Tumor cells were suspended in soft agar. Colony formation in soft agar was assayed as described in Zelinski et al. (2001, Cancer Res. 61: 2301-6). Antibodies or a control solution (PBS) was included in bottom and top agar solutions. Cells were suspended in soft agar for 7 days at 37° C. in the presence of purified antibody or control solution (PBS), administered at the time of suspension. Colony formation was scored microscopically using an Olympus CK-3 inverted phase-contrast microscope outfitted with a 40× objective. Clusters containing at least three cells were scored as a positive. The average number of colonies per high-powered field is shown. Ten separate high-power microscopic fields were averaged in each experiment, and the results shown are representative of at least three separate experiments.
as §2

EphA2 [5] = target: T1, EphA2; assay: Immunofluorescent staining of MDA-MB-231 and MCF-10A cells; type: binding; parameters: endogenous in cells; host or cells: MDA-MB-231; MCF-10A
Source text: The epitope of the EphA2 antibodies were characterized. EA5 and EA2 selectively bind to malignant cells. The anti-EphA2 monoclonal antibodies EA5 and EA2 bind malignant MDA-MB-231 breast epithelial tumor cells (FIGS. 11A-11B) more strongly than benign MCF-10A breast epithelial tumor cells (FIGS. 11C-11D) as shown by immunofluorescent staining. […] The anti-EphA2 monoclonal antibody EA5 identified malignant prostate cancer cells in formalin-fixed, paraffin-embedded archival clinical specimens (FIG. 12).
EA5 preferentially binds an EphA2 epitope exposed on cancer cells but not non-cancer cells. Non-transformed MCF-10A cells or transformed MDA-MB-231 cells were incubated with 10 μg/ml EA2 at 4° C. for 30 min. prior to fixation in a 3% formalin solution and immunolabeling with fluorophore-conjugated anti-mouse IgG.

EphA2 [6] = target: T1, EphA2; assay: EphA2 tyrosine phosphorylation and degradation in MDA-MB-231 cells (immunoprecipitation / western blot); type: cell-based; parameters: endogenous in cells; host or cells: MDA-MB-231; MCF-10A; conditions: MDA-MB-231 monolayers
Method: EphA2 antibodies promoted tyrosine phosphorylation and degradation of EphA2 in MDA-MB-231 (FIGS. 1A-1C) cells. Monolayers of cells were incubated in the presence of EA5 (FIGS. 1A-1B, lanes 2, 3) or EA2 (FIGS. 1A-1B, lanes 4, 5) or control (FIGS. 1A-1B, lane 1) for 8 minutes at 37° C. Cell lysates were then immunoprecipitated with an EphA2-specific antibody (D7, purchased from Upstate Biologicals, Inc., Lake Placid, N.Y. and deposited with the American Type Tissue Collection on Dec. 8, 2000, and assigned ATCC number PTA 2755), resolved by SDS-PAGE and subjected to western blot analysis with a phosphotyrosine-specific antibody (4G10, purchased from Upstate Biologicals, Inc., Lake Placid, N.Y.) (FIG. 1A). The membranes were stripped and re-probed with the EphA2-specific antibody used in the immunoprecipitation (D7) as a loading control.
Western blot analyses and immunoprecipitations were performed as described previously (Zantek et al., 1999, Cell Growth Diff. 10: 629-38). Briefly, detergent extracts of cell monolayers were extracted in Tris-buffered saline containing 1% Triton X-100 (Sigma, St. Louis, Mo.). […] Antibody binding was detected by enhanced chemiluminescence (Pierce, Rockford, Ill.) and autoradiography (Kodak X-OMAT; Rochester, N.Y.). […]

[7] = target: T2, EphA2-Ephrin A1-Fc complex (Homo sapiens, UniProt P29317); assay: Binding to EphA2-Ephrin A1-Fc complex on microtiter plate; conditions: EphA2-Fc bound to immobilized Ephrin A1-Fc
T2 construct: consisting of the extracellular domain of EphA2 linked to human IgG1 constant region
Method: (§4) A microtiter plate was coated with […] Ephrin A1-Fc overnight at 4° C. A fusion protein consisting of the extracellular domain of EphA2 linked to human IgG1 constant region (EphA2-Fc) was incubated with and bound to the immobilized Ephrin A1-Fc. Biotinylated Ephrin A1-Fc or EA5 was incubated with the EphA2-Ephrin A1-Fc complex and amount of binding was measured.

[8] = target: T2, EphA2-Ephrin A1-Fc complex; assay: Competition for labeled EA5 on EphA2-Ephrin A1-Fc complex; type: binding; conditions: biotinylated EA5 10 μg/ml, 30 min.
Method: as §4
The EphA2-Ephrin A1-Fc complex was prepared as described above. Biotinylated EA5 (10 μg/ml) was then incubated with the complex for 30 min. Unlabeled competitor was incubated with EphA2-Ephrin A1-Fc-EA5 complex in the indicated amount. Unlabeled EA5 could displace the labeled EA5 at concentrations of 100 ng/ml or greater.

T1 sequence (P29317 24-976): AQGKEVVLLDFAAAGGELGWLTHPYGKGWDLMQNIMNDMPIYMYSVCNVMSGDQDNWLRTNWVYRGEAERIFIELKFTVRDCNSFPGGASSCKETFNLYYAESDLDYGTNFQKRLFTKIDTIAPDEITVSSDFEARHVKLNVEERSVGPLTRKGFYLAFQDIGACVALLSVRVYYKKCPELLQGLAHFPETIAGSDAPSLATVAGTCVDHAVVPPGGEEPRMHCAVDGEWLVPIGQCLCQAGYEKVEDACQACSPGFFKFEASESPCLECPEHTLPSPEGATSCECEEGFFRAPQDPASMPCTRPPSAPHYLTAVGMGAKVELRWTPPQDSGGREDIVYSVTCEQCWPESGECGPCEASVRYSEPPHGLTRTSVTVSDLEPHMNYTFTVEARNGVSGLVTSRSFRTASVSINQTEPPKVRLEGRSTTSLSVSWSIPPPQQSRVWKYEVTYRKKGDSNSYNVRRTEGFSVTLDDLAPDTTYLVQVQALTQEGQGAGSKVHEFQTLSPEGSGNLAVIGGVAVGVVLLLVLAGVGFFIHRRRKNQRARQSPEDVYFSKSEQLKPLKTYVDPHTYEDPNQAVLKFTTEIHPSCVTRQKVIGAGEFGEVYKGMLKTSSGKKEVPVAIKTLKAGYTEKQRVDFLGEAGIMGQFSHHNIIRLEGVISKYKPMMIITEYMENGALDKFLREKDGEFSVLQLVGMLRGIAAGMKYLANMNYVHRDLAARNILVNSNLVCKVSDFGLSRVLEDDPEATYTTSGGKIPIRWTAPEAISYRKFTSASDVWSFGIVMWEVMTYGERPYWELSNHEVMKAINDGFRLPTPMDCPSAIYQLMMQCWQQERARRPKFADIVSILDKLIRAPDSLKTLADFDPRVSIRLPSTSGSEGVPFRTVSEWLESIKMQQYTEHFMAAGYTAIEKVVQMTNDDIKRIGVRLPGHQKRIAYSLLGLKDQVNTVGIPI
T2 sequence (P29317 24-537 limits assumed, one chain of several): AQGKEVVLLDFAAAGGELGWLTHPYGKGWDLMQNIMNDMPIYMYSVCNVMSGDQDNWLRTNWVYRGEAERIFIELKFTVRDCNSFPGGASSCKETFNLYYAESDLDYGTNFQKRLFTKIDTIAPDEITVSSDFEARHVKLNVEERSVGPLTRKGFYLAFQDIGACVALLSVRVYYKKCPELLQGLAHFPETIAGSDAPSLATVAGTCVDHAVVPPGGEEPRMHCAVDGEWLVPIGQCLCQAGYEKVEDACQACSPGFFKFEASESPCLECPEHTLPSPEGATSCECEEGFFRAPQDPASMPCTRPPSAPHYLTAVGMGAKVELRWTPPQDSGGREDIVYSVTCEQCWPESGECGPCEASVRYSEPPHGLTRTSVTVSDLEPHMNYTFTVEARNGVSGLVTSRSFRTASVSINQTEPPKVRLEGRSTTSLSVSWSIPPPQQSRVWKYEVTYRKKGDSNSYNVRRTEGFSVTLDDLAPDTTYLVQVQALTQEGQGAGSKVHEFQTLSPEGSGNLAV

Molecule: C[C@]12CC[C@@H]3c4ccc(O)cc4CC[C@H]3[C@@H]1CC[C@@H]2O [estradiol, 17β-estradiol, reference compound]
- Effect of excess estradiol on tamoxifen inhibition of soft agar colonization (MCF-7^EphA2 cells [1]; 1 μM tamoxifen and 1 μM 17β-estradiol, MCF-7 or MCF-7^EphA2 cells (FIG. 8A)): overcame the inhibitory effects of tamoxifen

Molecule: CC/C(=C(\c1ccccc1)c1ccc(OCCN(C)C)cc1)c1ccccc1 [tamoxifen]
- Sensitivity of tumorigenic potential to tamoxifen (MCF-7^EphA2 cells [2]): less sensitive to tamoxifen
- inhibition at 1 µM (MCF-7^EphA2 cells [1]; 336 h, MCF-7^EphA2 cells, 1 μM tamoxifen, 14 days (FIG. 8A), read-out: Inhibition of soft agar colonization): 25%
- Decrease in soft agar colonization (MCF-7^EphA2 cells [1]; MCF-7^EphA2 cells, tamoxifen 1 μM and/or EA5 10 μg/ml (FIG. 10C)): 25%
- inhibition at 1 µM (control MCF-7 cells; Homo sapiens, MCF7, matched control MCF-7 cells, tamoxifen 1 μM (FIG. 10C), read-out: Inhibition of soft agar colonization): 75%
- Reduction of soft agar colonization (control MCF-7 cells; control MCF-7 cells, 1 μM tamoxifen, 14 days (FIG. 8A)): at least 60%
- Estrogen receptor activity (CAT) (estrogen receptor): remained sensitive to tamoxifen

B1: EA2: EphA2 agonistic monoclonal antibody; hybridoma strain EA2.31, ATCC PTA-4380; VL SEQ ID NO:1, VH SEQ ID NO:5 (antibody, listed as Homo Sapiens, V domains shown)
VH: DVKLVESGGGLVKPGGSLKLSCAASGFTFSSYTMSWVRQTPEKRLEWVATISSGGTYTYYPDSVKGRFTISRDNAKNTLYLQMSSLKSEDTAMYYCTREAIFTYWGQGTLVTVSA
VL: DIKMTQSPSSMYASLGERVTITCKASQDINNYLSWFQQKPGKSPKTLIYRANRLVDGVPSRFSGSGSGQDYSLTISSLEYEDMGIYYCLKYDEFPYTFGGGTKLEIK
- EphA2 phosphorylation (EphA2 [3]; 10 minutes at 37° C.): increase in phosphorylation
- EphA2 protein degradation (EphA2 [3]; 5 hours at 37° C.): degradation of the EphA2 protein
- Cell growth in soft agar (colonies per high-powered field) [4]: inhibited cell growth in soft agar
- Binding to malignant MDA-MB-231 vs benign MCF-10A cells (EphA2 [5]): more strongly
- EphA2 protein levels (EphA2 [6]; 30 μg/ml, 24 hours at 37° C.): decrease
- Levels of EphA2 phosphorylation (EphA2 [6]; 8 minutes at 37° C., phosphotyrosine western blot): increase

B2: Ephrin A1-Fc: Fc form of the EphA2 ligand Ephrin A1, used biotinylated or unlabeled (protein)
chain: DRHTVFWNSSNPKFRNEDYTIHVQLNDYVDIICPHYEDHSVADAAMEQYILYLVEHEEYQLCQPQSKDQVRWQCNRPSAKHGPEKLSEKFQRFTPFTLGKEFKEGHSYYYISKPIHQHEDRCLRLKVTVSGKITHSPQAHDNPQEKRLAADDPEVRVLHSIGHS
modifications: left off: a dimerising Fc or GST
notes: Fc form of the EphA2 ligand Ephrin A1, used biotinylated or unlabeled
- Amount of biotinylated protein bound to EphA2-Ephrin A1-Fc complex [7]: Very little additional Ephrin A1-Fc bound
- Displacement of labeled EA5 by unlabeled competitor [8]: did not significantly displace labeled EA5
